Data taken from PMC12808100, “The non-catalytic DNA polymerase ε subunit is an NPF motif recognition protein” (Nature Communications, 2025).

Key:
[1] = target: non-catalytic subunit of DNA polymerase ε (POLE2), endogenous (human (endogenous in Jurkat)) (UniProt P56282); test: native holdup (nHU) with mass spectrometry; estimate from the difference between the depletion of POLE and of POLE2 by the same NPF motif bait, with about 1 nM of each assumed in the extract; apparent
[2] = target: NPF motif peptide of DONSON (residues 71-88); test: native holdup (nHU) titration with dot blot; DONSON_71-88-saturated streptavidin resin mixed with control resin at various proportions; extracts of HEK293T cells expressing HA-tagged POLE2 variants; 4 °C, 2 h; depletion quantified with an antibody against the HA tag; apparent

Chain of catalytic subunit of DNA polymerase ε (POLE), endogenous (Q07864 whole entry): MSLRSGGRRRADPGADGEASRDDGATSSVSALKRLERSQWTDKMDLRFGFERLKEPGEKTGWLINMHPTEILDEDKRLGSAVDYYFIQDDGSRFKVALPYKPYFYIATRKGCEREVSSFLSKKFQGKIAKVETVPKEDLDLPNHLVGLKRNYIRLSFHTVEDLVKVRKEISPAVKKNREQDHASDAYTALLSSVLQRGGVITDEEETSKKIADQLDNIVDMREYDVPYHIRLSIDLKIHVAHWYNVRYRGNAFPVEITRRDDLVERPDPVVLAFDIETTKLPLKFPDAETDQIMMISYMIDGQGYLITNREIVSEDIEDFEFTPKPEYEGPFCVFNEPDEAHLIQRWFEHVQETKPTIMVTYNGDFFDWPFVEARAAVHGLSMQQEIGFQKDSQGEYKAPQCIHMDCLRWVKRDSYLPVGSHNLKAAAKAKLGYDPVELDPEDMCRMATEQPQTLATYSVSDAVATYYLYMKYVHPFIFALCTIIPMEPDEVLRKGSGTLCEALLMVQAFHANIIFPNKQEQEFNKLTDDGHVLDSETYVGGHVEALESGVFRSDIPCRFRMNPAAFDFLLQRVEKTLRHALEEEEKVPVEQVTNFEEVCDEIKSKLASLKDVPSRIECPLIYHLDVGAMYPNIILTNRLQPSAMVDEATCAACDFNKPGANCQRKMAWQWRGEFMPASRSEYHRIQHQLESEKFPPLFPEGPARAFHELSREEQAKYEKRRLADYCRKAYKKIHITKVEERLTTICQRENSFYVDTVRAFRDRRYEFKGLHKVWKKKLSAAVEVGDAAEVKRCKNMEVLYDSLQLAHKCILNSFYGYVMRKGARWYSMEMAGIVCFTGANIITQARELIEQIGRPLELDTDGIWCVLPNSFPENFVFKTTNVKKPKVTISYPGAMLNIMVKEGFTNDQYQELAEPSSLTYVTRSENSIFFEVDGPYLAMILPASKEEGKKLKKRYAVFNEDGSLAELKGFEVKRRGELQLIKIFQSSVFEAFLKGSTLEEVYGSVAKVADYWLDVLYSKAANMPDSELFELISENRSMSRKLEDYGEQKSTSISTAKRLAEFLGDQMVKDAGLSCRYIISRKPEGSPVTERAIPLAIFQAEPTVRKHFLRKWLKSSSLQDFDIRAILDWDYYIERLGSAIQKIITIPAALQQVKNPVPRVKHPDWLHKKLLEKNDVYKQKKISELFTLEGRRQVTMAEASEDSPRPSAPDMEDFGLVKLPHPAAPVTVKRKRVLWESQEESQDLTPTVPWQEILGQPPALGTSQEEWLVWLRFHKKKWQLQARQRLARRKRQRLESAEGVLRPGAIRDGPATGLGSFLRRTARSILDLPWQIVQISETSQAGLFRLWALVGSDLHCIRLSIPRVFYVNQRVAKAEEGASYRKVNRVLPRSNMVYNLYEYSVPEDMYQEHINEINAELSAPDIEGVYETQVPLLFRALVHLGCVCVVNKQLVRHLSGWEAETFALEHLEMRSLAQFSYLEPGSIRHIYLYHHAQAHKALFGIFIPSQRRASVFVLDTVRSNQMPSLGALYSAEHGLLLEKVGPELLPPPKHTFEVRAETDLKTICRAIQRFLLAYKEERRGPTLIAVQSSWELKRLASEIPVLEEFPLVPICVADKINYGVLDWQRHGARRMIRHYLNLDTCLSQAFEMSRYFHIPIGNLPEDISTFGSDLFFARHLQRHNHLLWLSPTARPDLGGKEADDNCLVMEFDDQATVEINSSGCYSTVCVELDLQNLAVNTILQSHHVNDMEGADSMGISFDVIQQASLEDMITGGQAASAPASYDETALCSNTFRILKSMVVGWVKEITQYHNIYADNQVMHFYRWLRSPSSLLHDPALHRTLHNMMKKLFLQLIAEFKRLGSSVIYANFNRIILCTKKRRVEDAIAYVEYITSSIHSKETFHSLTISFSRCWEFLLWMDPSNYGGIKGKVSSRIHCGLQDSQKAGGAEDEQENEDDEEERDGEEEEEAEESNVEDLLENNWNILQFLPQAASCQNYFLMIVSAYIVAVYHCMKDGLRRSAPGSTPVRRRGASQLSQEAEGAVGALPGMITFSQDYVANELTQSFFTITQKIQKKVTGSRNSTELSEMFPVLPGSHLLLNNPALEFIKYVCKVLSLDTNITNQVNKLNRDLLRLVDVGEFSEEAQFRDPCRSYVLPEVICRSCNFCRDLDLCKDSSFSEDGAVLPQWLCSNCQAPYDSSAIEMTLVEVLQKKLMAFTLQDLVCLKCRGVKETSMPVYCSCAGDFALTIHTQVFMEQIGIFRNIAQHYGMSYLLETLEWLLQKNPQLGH
Chain of non-catalytic subunit of DNA polymerase ε (POLE2), endogenous (human (endogenous in Jurkat)) (P56282 whole entry, the tested form may be a part): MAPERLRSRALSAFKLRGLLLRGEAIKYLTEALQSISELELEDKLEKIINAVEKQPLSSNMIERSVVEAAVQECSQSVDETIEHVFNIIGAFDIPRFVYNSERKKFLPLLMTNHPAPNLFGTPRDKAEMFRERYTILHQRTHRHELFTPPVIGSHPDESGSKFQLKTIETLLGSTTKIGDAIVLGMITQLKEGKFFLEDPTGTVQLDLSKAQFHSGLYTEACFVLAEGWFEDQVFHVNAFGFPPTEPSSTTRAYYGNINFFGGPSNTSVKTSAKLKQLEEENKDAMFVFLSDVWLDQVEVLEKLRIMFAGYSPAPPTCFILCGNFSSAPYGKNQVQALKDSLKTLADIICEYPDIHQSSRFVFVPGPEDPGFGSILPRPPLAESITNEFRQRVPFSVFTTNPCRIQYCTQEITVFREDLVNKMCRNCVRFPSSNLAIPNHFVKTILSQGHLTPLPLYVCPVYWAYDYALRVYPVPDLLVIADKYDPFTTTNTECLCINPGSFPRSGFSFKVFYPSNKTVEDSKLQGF
Chain of HA-MBP-POLE2 (P56282 whole entry): as the sequence (P56282 whole entry, the tested form may be a part) above

| Substance | Kd [1] | fold weaker binding than HA-POLE2 [2] |
| --- | --- | --- |
| catalytic subunit of DNA polymerase ε (POLE), endogenous (from UniProt Q07864 1-2286) (natural protein) | 0.1 to 0.3 nM |  |
| HA-MBP-POLE2 (from UniProt P56282 1-527) (natural protein) |  | 10 fold |
